According to the nanobody polyreactivity screen of Harvey et al. (2022):

Test: yeast display, Sf9 membrane polyspecificity reagent, FACS + sequencing; frameworks hold sequencing errors
Procedure, shortened: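 A nanobody's polyreactivity label depends on the gate it was sorted from. Yeast display cells were stained with 10% biotinylated, detergent-solubilized Sf9 membrane reagent for 1 hour at 4 °C, enriched on streptavidin microbeads and sorted by FACS. The low and high (top ~1%) gates were set on anti-HA fluorescence for expression and streptavidin fluorescence for reagent binding.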

Sequence	polyreactivity (PSR sort gate)
QVQLVESGGGLVQAGGSLRLSCAASGRILYVYAMGWYIQAPGKERELVAAITSGGSTHYADSVKGRFTISRDNAKNTVYLQMNSLKPEDTAVYYCAAYTLRNRGGFNYWGQGTQVTVSS	high polyreactivity
QVQLVESGGGLVQAGGSLRLSCAASGRTFLNYAMRWNRQAPVKERELVAAITDGDSTNYADSVKGRFTISRDNAKNTVYLQMNSLKPEDTAVYYCNAPSLAYRYYYWGQGTQVTVSS	high polyreactivity
QVQLVESGGGLVQAGGSLRLSCAASGRTFAFYAMGWYRQAPGKERELVASIRGGGGTNYADSVKGRFTISRDNAKNTVYLQMNSLKTEDTAVYYCAARGYGYRGYYYWGQGTQVTVSS	high polyreactivity
QVQLVDSAGGLVQAGGSLRLSCAASGLTFPPNAMGWYRQAPGKEREFVAVISSGGGSTYYADSVKGRFTISRDNAKNTVYLQMNSLKPEDTAVYYCATEYQDGDTEYYYWGQGTQVTVSS	low polyreactivity
QVQLVESGGGLVQAGGSLRLTCAPSGRIFTRNTMGSYRQAPGKERELVAAISTGASTYYADSVKGRFTISRDNATNSVYLQMNSLKPEVTAVYYCATRGYARYWGLGTQVTVSS	low polyreactivity
QVQLVESWGGLVEAGGSLRLSCAASGRTFRSYAMVWYRQAPWKERELVAAISDGGSTNYADSVKGRFTISRDNAKNTVYLQMNSLKPEDTAVYYCAAVIFFAVFRFYYWGQGTQVTVSS	low polyreactivity
QVQLVESGGGLVQAGGSLRLSCAASGRIFYINVMGWYRQAPGKERELVAGITWIGGSTYADSVKGRFTISRDNAKNTVYLQMNSLKPEVTAVYYCNADPDFTVYRYLWPEGVEYWGQGTQVTVSS	low polyreactivity
QVQLVESGGGLVQAGGSLRLSCAASGITTTVYAMGWYRQAPGKERELVAGISWSTSSTYYADSVKGRFTISRDNAKNTVYLQMNSLKPEDNAVYYCAVYTITGRVLRQGPLYRHYYWGQGTQVTVSS	high polyreactivity
QVQLEESGGGLVQAGGSLRLSCAASGSIFDPNAMGWYRKAPGKERELVADIDSSDGSTYYADSVKGRFTISRDNAKNTVYLQMNSLKPEDTAVYYCNARYGGWVWSTYDHWGQGTQVTVSS	low polyreactivity
QVQLVESGGGLVQAGGSLRLSCAASGSIFVHYAMGWYRQAPGKERELVAAISRSGGSTYYADSVKGRFTISRDNAKNTFYLQMNSLKPEDTAVYYCAADSGYLSPYDYWGHGTQVTVSS	low polyreactivity
QVQLVESAGGLVQAGGSLRLSCAASGITHHHNAIGWSRQAPRKERELVAAITSNGGSTYYAVSVKGRFTISRDHAKNSVYLQINSLKPEDTAVYYCARDSKRLARYYYWGQGTQVTVSS	low polyreactivity
QVQLVESGGGLVQAGGSLRLSCAASGLTFGAYAMGWYRQAPGKEREFVAAITYSGGSTNYADSVKGRFTISRDNAKNTVYLQMNSLKPEDTAVYSCNAGYYSPWAFYPYDYWGQGTQVTVSS	high polyreactivity
QVQLVESGGGLVQAGGSLRLSCAASGYIFDYYAMGWYRQAPGKESELVAAISSSGGTTYYADSVKGRFTISRDNAKNTFYLQMNSLKPEDTAVYYCAARKSRWHRGYYYWGQGTQVTVSS	high polyreactivity
QVQLVESGGGLVQARGSLRLSCAASGSTFRFNAMGRYRQAPGKEREFVAAIRFTGGSTYYADSVKGRFTISRDYAKNTVYLQMNSLKPEDTAVYYCNNADEYSNVEYDYWGQGTQVTVSS	low polyreactivity
QVQLVESGGGLVQAGGSLRLSRAASGSTLSLYAMGWYRQAPGKERELVAAITSSGGTYYADSVKGRFTISRDNAKNTVYLQMNSLKPEDTAVYYCAADPRSYFTSEYWGQGTQVTVSS	high polyreactivity
QVQLVESGGGLVQAGGSLRLSCAASGRTFSPYVMGWYRQAPGKETELVATITGGGGSTYYADSVKGRFTISRDNAKNTVFLQMNSLKPEDTAVYYCARGYRYYVYRMGYWGQGTQVTVSS	high polyreactivity
QVQLVESGGGLVQAGGSLRLSCAASGSIFVGYAMGWYRQAPWKERELVAAISKRGGGTYYADSVKGRFTISRDNAKNTVYLHMNSLKPEDTAVYYCNAVPVHLDVASGYYYWGQGTQVTVSS	high polyreactivity
QVQLVESAAGLVQAGGSLRLSCDASGSIFYSYAMGWYRQAPGKERELVAAITDSGDSTYYADCVKGRFTISRDNAKNTVYLQMNSLKPEDTAVYYCAAGFYPYYYWGQGTQVTVSS	low polyreactivity
QVQLVESGGGLVQAGGSLRLSCAASRSTFYAYALGCYRQAPGKERELVAAIDSGGSTYYADSVKGRFTISRDNAKNTVYLQMNSLKPEDTAVYYCAVRHRYTRAYWGRDYWGQGTQVTVSS	low polyreactivity
QVQLVESGGGIVQAGVSLRLSCAASGINIDYYAMGWYRQAPGKERELVAAITSGGSTSYADSVKGRFTISRDNAKNTVYLQMNSLKAEDTAVYYCNTEPSGYESGYWGQGTQVTVSS	low polyreactivity
QVQLVESGGGLVQAGGSLRLSCAASGFTFVNNAMGWYRQAPGKERELVAAISGGGTTNYADSVKGRFTISRDNAKNTVYLQMNSLKPEDTAVYYCAARRYFGLWYFWYDYWGQGTQVTVSS	high polyreactivity
QVQLVESGGGLVQAGGSLRLSCAASGFTFKKYAMGWYRQAPGKERELVAAISSSGGRTTYADSVKGRFTISRDNAKNTVYLQMNSLKPEDTAVYYCNADRYTAVRAYDYWGQGTQVTVSS	low polyreactivity

Sequence	polyreactivity (PSR sort gate)
QVQLVESGGGLVQAGGSLRLSCAASGFTFNYSAKGWYRQAPGKEREFVAAISRGGGRTYYADSVKGRFTISRDNANNTVYLQMNSLKPEATAVYSCAAQSVPYAYPLASYDYWGQGTQVTVSS	high polyreactivity
QGQLVESGGGLVQAGGSLRLTCAASGRIFKWYAMGWYIQETGKERELVAAISSAGSTYYADSVKGRFTISRDNAKNTVYLQLNSLKPEDTAVYYCAARKYTFRRKSRYGYWGQGTQVTVSS	high polyreactivity
QVQLVESGGGLVQAGGSLRLSSAASGSTFGYYAMRWYRQAPGKARELVAAISSAGSTNDADSVKGRFTISRDNAKNTVYLQMNSLKPEDTAVYYCAAKVRVRWHTGLVTRDYDCGQGTQVTVSS	high polyreactivity
QVQLVESGGGLVQAGGSLRLSCAASGVTFYAYAMAWYRQAPGKERELVAVISQSGTRTYYADSVKGRFTISRDNAKNTVYLQMNSLKPEDTAVYYCAAPKAQLQPYYYWGQGTQVTVSS	high polyreactivity
QVQLVESGGGLVQAGGSLRLSCAASGRTFLIYAMGWYRQAPGKEREFVATITYSGGSTYYADSVKGRFTISRDNAKNTVYLQMNSLKPEDTAVYYCAAVRYGYRRSGPYNYSYDYWGQGTQVTVSS	high polyreactivity
QVQLVESGGGLVQAGRSLRLSCAASGSILGGNAMGWYRQAPGKDRELVAAITFSGGGTYYADSVKGRFTISRDNAKNTVDFQMNSLKPEDTAVYYCAADKVGYTYEFDYWGQGTQVTVSS	low polyreactivity
QVQLVESGGGLVQAGGSLRLSCAASGFTFRFYAMGWYRQAPGKERELVAAISRSGGDTYYADSVKGRFTISRDNAKNTVYLQRNRLIPEDTAVYYCNKATYRVAGRDFDYWGQGTQVTVSS	high polyreactivity
QVQLVESGGGLVQAGGSLRLSCAASGRTFVNYALGWYRQAPWKERELVAGISSDGSTYYADSEKGRFTISRDNAKNTVYLQMNSLKPEDTAVYYCATEIRITGLYRYDYWGQGTQVTVSS	low polyreactivity
QVQLVESGGGLVQAGGSLRLSCAASGRTLSWYAMGWYRQAPGKEREFVAAITSSGASTYYADSVKGRFTISRDNAKNTVYLQMNSLKPEDTAVYYCAAKMRGYPRRRYDYCGQGTQVTVSS	high polyreactivity
QVQLVESGGGLVQAGGSLRLSCAASGSIFDDYAMGWYRQAPGKERELVAAITTGGGRTYYADSVKGRFTISRDNAKNTVYLQMNSLKPEDTAVYYCNAKAVRGYGTWRDGSISYGMDYWGQGTQVTVSS	high polyreactivity
QVHLVESGGGLVQAGGSLRLSCAASGSIFGYNAMGWYRQAPGKERELVAAISLTTGSTYYADSVKGRFTISRDNAKNTVYLQMNSLKPEDTAVYYCAIRGFYRGYGQAYGYWGQGTLVTVSS	high polyreactivity
QVQLVESGGGLVQAGGSLRLSCAASGSTFQYYAMGWYRQAPGKERELVAAISYRGSTYYADSVKGRFTISRDNAKNTVYLQMNSLKPEDTAVYYCAAVNRPWYSFGYGYWGQGTQVTVSS	high polyreactivity
QVQLVESGGGLVQAGGSLRLSCAASGVIFLWYAMGWYRQAPGKERELVARISNGGSTYYADSVKGRFTISRDNAKNTVYLQMISLKPEDTAVYYCNKVYYWIAYGHRSYLMDYWGQGTQVTVSS	high polyreactivity
QVKLVESGAGLVQAGGSLRLSCAASGIIFAQYTMGWYRQAPGKERELVAAINRNGGSTYYADSVKGRFTISRDNAKNTVYLQMNSLKPEDTAVYYCNAEALGFRYDYWGQGTQVTVSS	low polyreactivity
QVQLVESGGGLVQAGGSLRLSCAASGSIFRRYAMGWYRQPPGKERELVASISSRGTRTYYADSVKGRFTISRDNAKNTVYLQMNSLKPEDTAVYYCAASYYTPYDYWGQGTQVTVSS	high polyreactivity
QVQLVESVGGLVQAGGSLRLSCAASGYTFFYAMGWYRQAPGKERELVASITSAASTTYADSVKGRFTISRDNAKNTVYLQMNSLKPEDTAVYYCAASHSWWFYPGYYYWGQGTQVTVSS	high polyreactivity
QVQLVESGGGLVQAGGSLRLSCAASGGTFKLYAMGWYRQAPGKERELVAAISRRGGSTYYADSVKVRFTISRDNAKNTVYLQMNSLKPEDTAVYYCAAPGPTQSTQRGGYWGQGTQVTVSS	high polyreactivity
QVQLVESGGGLVQAGGSLRLSCAASGSIFSGYMGWYRQAPGKERELVATITSGGSTYADSVKGRFTISRDNAKNTVYLQMNSLKPEDTAVYYCAADVSFYTSKYDYWGQGTQVTVSS	low polyreactivity
QVQLVESRRGLVQARGSLRLSCAASGITFRWYAMGWYRQAPGKERELVAAITTGGSTKYADSVKGRFTISRDNAKNTVYLQMNSLKPEDTAVYYCAARGRYAGGYWGQGTQVTVSS	high polyreactivity
QVQLVESGGGLVQAGGRLRLSCAASGRTFTQYTMGWYRQAPGKERELVAAISSGGSTYYADSVKGRFTISRDNAKNTVFLQMNSLNPEDTAVYYCAARSYYAKSRYYYWGQGTQVTVSS	high polyreactivity
QVQLVESGGGLVQAGGSLRLSSAASGRIFYRNAMGWYRQAPGKEREMVAAINWSGGSTYYADSVKGRFTISRDNAKNSVYLQMNSLKPEDTAVYYCAAKPGKTPLTGDRGPYDTGYGYWGQGTQVTVSS	low polyreactivity
